# Source: US20120172293A1 (Takeda / Millennium, published 2012)
# Assays:
# [1] = target: human Y2 receptor (human) (UniProt P49146); experiment: RBA: displacement of [125I]-PYY from hY2R/CHO membranes
# [2] = target: human Y2 receptor (human) (UniProt P49146); experiment: cell-based or functional assay
# Sequence of human Y2 receptor (human) (P49146 whole entry): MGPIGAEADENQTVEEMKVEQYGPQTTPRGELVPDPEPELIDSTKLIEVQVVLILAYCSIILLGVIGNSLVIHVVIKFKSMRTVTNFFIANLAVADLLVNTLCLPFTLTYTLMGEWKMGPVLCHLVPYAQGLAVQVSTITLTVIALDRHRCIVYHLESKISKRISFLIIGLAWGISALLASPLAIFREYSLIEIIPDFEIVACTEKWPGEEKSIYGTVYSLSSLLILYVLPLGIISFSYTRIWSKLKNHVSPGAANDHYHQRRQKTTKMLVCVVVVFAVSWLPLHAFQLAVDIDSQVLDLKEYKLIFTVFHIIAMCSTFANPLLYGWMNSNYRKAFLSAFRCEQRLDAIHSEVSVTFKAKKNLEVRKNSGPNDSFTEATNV
Substance,IC50 Ratio (IC50 compound/IC50 PYY(3-36)) [1],GBA EC50 Ratio ([35S]GTPγS binding) (EC50 compound/EC50 PYY(3-36)) [2]
"Ac-[D-Pro24, Ala(4Pip)26, Cha27,36, Aib28,31, Lys30]-PYY(23-36) (peptide)",1.2,1.5
"Ac-[D-Pro24, Pya(4)26, Cha27,36, Aib28,31, Ala(4-pip)30]-PYY(23-36) (peptide)",0.72,0.8
"4-Imidazolecarbonyl-[Aib24,28,31, Iva25, Pya(4)26, Cha27,36, Lys30]-PYY(23-36) (peptide)",1.9,1.7
"Ac-[D-Hyp24, Pya(4)26, Cha27,36, Aib28,31, Lys30]-PYY(23-36) (peptide)",1.1,0.86
"4-Pyridinecarbonyl-[D-Hyp24, Iva25,28, Pya(4)26, Cha27,36, Lys30, Aib31]-PYY(23-36) (peptide)",1.3,1.6
"(cis-2,6-Dimethylmorpholin-4-yl)carbonyl-[D-Pro24, Pya(4)26, Cha27,36, Aib28,31, Lys30]-PYY(23-36) (peptide)",0.91,0.65
"Ac-[D-Pro24, Nar25, Pya(4)26, Cha27,36, Aib28,31, Lys30]-PYY(23-36) (peptide)",1.1,1.8
"Ac-[D-Pro24, Cit25, Pya(4)26, Cha27,36, Aib28,31, Lys30]-PYY(23-36) (peptide)",2.8,2.2
"Ac-[D-Pro24, Pya(4)26, Cha27,36, Aib28,31, Lys(Ac)30]-PYY(23-36) (peptide)",0.97,1.1
"Ac-[D-Pro24, Arg(Me)25, Pya(4)26, Cha27,36, Aib28,31, Lys30]-PYY(23-36) (peptide)",1.1,1.3
"Ac-[Dap22, D-Pro24, Pya(4)26, Cha27,36, Aib28,31, Lys30]-PYY(22-36) (peptide)",1.2,1.6
"Ac-[D-Pro24, Pya(4)26, Cha27,36, D-Iva28,31, Lys30]-PYY(23-36) (peptide)",0.7,1.6
"Ac-[D-Pro24, Pya(4)26, Cha27,36, Aib28,31, Orn30]-PYY(23-36) (peptide)",1.5,0.83
"[(1S)-1-carboxy-2-hydroxyethyl]carbamoyl-[D-Pro24, Pya(4)26, Cha27,36, Aib28,31, Lys30]-PYY(23-36) (peptide)",0.52,1.3
"3-Carboxypropionyl-[D-Hyp24, Iva25, Pya(4)26, Cha27,36, Leu(Me)28, Lys30, Aib31]-PYY(23-36) (peptide)",0.92,1.9
"Morpholinocarbonyl-[D-Pro24, Pya(4)26, Cha27,36, Aib28,31, Lys30]-PYY(23-36) (peptide)",0.89,0.57
"4-Imidazolecarbonyl-[D-Hyp24, Iva25, Pya(4)26, Cha27,36, αMePhe28, Lys30, Aib31]-PYY(23-36) (peptide)",0.65,1
"Ac-[D-Pro24, Pya(4)26, Cha27,36, Iva28, Lys30, D-Iva31]-PYY(23-36) (peptide)",0.36,0.67
"(5-carboxypentyl)carbamoyl-[D-Pro24, Pya(4)26, Cha27,36, Aib28,31, Lys30]-PYY(23-36) (peptide)",1.2,1.5
"4-Imidazolecarbonyl-[D-Hyp24, Iva25, Pya(4)26, Cha27,36, Aib28,31, Lys30]-PYY(23-36) (peptide)",1.3,0.92
"3-Carboxypropionyl-[D-Pro24, Pya(4)26, Cha27,36, Aib28,31, Lys30]-PYY(23-36) (peptide)",0.96,1.2

Substance,IC50 Ratio (IC50 compound/IC50 PYY(3-36)) [1],GBA EC50 Ratio ([35S]GTPγS binding) (EC50 compound/EC50 PYY(3-36)) [2]
"Isobutanoyl-[D-Pro24, Pya(4)26, Cha27,36, Aib28,31, Lys30]-PYY(23-36) (peptide)",0.79,0.89
"Ac-[D-Pro24, Pya(4)26, Cha27,36, Aib28,31, Arg(Me)30]-PYY(23-36) (peptide)",1.1,1.2
"(3-carboxypropyl)carbamoyl-[D-Pro24, Pya(4)26, Cha27,36, Aib28,31, Lys30]-PYY(23-36) (peptide)",1.2,0.97
"4-Imidazolecarbonyl-[D-Hyp24, Iva25, Pya(4)26, Cha27,36, Leu(Me)28, Lys30, Aib31]-PYY(23-36) (peptide)",0.75,1.4
"Ac-[D-Pro24, Tyr(Me)26, Cha27,36, Aib28,31, Lys30]-PYY(23-36) (peptide)",0.88,1.4
"Ac-[D-Hyp24, Iva25,28, Pya(4)26, Cha27,36, Lys30, Aib31]-PYY(23-36) (peptide)",0.86,1
"Ac-[D-Pro24, Pya(4)26, Cha27, Aib28,31, Lys30, Phe(2Me)36]-PYY(23-36) (peptide)",1,0.98
"(2-Carboxyethyl)carbamoyl-[D-Pro24, Pya(4)26, Cha27,36, Aib28,31, Lys30]-PYY(23-36) (peptide)",1.3,0.94
"(2-amino-2-oxoethyl)carbamoyl-[D-Pro24, Pya(4)26, Cha27,36, Aib28,31, Lys30]-PYY(23-36) (peptide)",1.2,0.74
"Ac-[D-Pro24, Pya(4)26, Cha27,36, D-Iva28, Lys30, Aib31]-PYY(23-36) (peptide)",1.7,2.6
"4-Imidazolecarbonyl-[D-Pro24, Pya(4)26, Cha27,36, Aib28,31, Lys30]-PYY(23-36) (peptide)",0.76,1.1
"2-Methylbutanoyl-[D-Pro24, Pya(4)26, Cha27,36, Aib28,31, Lys30]-PYY(23-36) (peptide)",0.54,0.78
"Ac-[D-Pro24, Pya(4)26, Cha27, Aib28,31, Lys30, Phe(2,6-Me2)36]-PYY(23-36) (peptide)",0.52,0.59
"Ac-[D-Pro24, Pya(4)26, Cha27,36, Aib28, Lys30, D-Iva31]-PYY(23-36) (peptide)",0.55,1.6
"Ac-[D-Pro24, Abu26, Cha27,36, Aib28,31, Lys30]-PYY(23-36) (peptide)",2.3,0.98
"(Tetrahydro-2H-pyran-4-ylmethyl)carbamoyl-[D-Pro24, Pya(4)26, Cha27,36, Aib28,31, Lys30]-PYY(23-36) (peptide)",0.82,0.7
"[(1S)-1-Carboxy-2-(4-hydroxyphenyl)ethyl]carbamoyl-[D-Pro24, Pya(4)26, Cha27,36, Aib28,31, Lys30]-PYY(23-36) (peptide)",0.95,1.2
"4-Pyridinecarbonyl-[D-Hyp24, Iva25, Pya(4)26, Cha27,36, Leu(Me)28, Lys30, Aib31]-PYY(23-36) (peptide)",0.93,1.6
"Ac-[D-Pro24, Pya(4)26, Nal(2)27, Aib28,31, Lys30, Cha36]-PYY(23-36) (peptide)",7.2,4
"Tetrahydro-2H-pyran-4-yl-carbamoyl-[D-Pro24, Pya(4)26, Cha27,36, Aib28,31, Lys30]-PYY(23-36) (peptide)",0.52,0.61
